Assay in all cases: NMR titration; 1H,15N HSQC of 50 uM 15N-labelled FH domain, unlabelled CR3 added in trans (25 uM or 50 uM); 50 mM NaH2PO4/Na2HPO4 pH 6.5, 0.04% NaN3, 5 mM DTT; 25 C; read-out chemical shift perturbations and line broadening
Conditions in all cases: both partners purified

The target of assay [1] is T1, FOXO6 forkhead (FH) domain, amino acids 71 to 191 (human, UniProt A8MYZ6 71-191).
T1 construct: human FOXO6 (Forkhead box O6), Uniprot A8MYZ6, amino acids 71 to 191, forkhead domain; Uniformly 15N-labelled in the NMR titrations; Cloned into the vector pETM11-ZZ-His6 via NcoI/BamHI; also called FOXO6^FH; FOXO6 FH domain; source: E. coli BL21-DE3 Star, purified (Ni-NTA, TEV cleavage, second Ni-NTA, SEC)
T1 sequence (A8MYZ6 71-191): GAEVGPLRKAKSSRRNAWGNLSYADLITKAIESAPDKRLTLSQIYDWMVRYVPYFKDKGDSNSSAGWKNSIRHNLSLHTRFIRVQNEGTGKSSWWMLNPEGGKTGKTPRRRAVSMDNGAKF

Assay [2] deals with T2, FOXO1 forkhead (FH) domain, amino acids 143 to 270 (human, UniProt Q12778 143-270).
T2 construct: human FOXO1 (Forkhead box O1), Uniprot Q12778, amino acids 143 to 270, forkhead domain; Uniformly 15N-labelled in the NMR titrations; Cloned into the vector pETM11-ZZ-His6 via NcoI/BamHI; also called FOXO1^FH; FOXO1 FH domain; source: E. coli BL21-DE3 Star, purified (Ni-NTA, TEV cleavage, second Ni-NTA, SEC)
T2 sequence (Q12778 143-270): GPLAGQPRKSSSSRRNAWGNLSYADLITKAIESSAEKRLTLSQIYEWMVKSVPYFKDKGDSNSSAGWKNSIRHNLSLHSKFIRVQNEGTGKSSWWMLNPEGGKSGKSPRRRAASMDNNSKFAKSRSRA

The target in assay [3] is T3, FOXO3 forkhead (FH) domain, amino acids 141 to 260 (human, UniProt O43524 141-260).
T3 construct: human FOXO3 (Forkhead box O3), Uniprot O43524, amino acids 141 to 260, forkhead domain; Uniformly 15N-labelled in the NMR titrations; Cloned into the vector pETM11-ZZ-His6 via NcoI/BamHI; also called FOXO3^FH; FOXO3 FH domain; source: E. coli BL21-DE3 Star, purified (Ni-NTA, TEV cleavage, second Ni-NTA, SEC)
T3 sequence (O43524 141-260): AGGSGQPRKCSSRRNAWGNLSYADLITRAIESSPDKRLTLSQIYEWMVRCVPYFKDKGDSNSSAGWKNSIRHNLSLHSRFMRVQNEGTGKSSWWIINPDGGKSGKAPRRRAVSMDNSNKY

This note sets out measurements from article PMC9097636, “FOXO transcription factors differ in their dynamics and intra/intermolecular interactions” (Current Research in Structural Biology, 2022).

B1: FOXO6 conserved region 3 (CR3, transactivation domain), amino acids 418 to 472 (domain or fragment, human, UniProt A8MYZ6 418-472, looked up)
chain: YAAAAAGPLGAAPDRFPADLDLDMFSGSLECDVESIILNDFMDSDEMDFNFDSAL
notes: human FOXO6, Uniprot A8MYZ6, amino acids 418 to 472, CR3; Unlabelled in the titrations; also called FOXO6^CR3; CR3 of FOXO6; source: E. coli BL21-DE3 Star, lysed in 6 M urea, purified (Ni-NTA, TEV cleavage, second Ni-NTA, SEC)
As to B1, the binding result in assay [1] and in assay [2] was “binds” each time.

B2: FOXO1 conserved region 3 (CR3, transactivation domain), amino acids 587 to 636 (domain or fragment, human, UniProt Q12778 587-636, looked up)
chain: YGRMGLLHQEKLPSDLDGMFIERLDCDMESIIRNDLMDGDTLDFNFDNVL
notes: human FOXO1, Uniprot Q12778, amino acids 587 to 636, CR3; Unlabelled in the titrations; also called FOXO1^CR3; CR3 of FOXO1; source: E. coli BL21-DE3 Star, lysed in 6 M urea, purified (Ni-NTA, TEV cleavage, second Ni-NTA, SEC)
In the case of B2, the binding result in assay [1], in assay [3] and in assay [2] was “binds” each time.
